Target: Phaseolus coccineus PCNA1 (PcPCNA1), recombinant (Phaseolus coccineus)
Assay: SEC

stoichiometry N: 3
Substance: Phaseolus coccineus PCNA1 (PcPCNA1), recombinant (natural protein)

Source: PMC2814116
